Patent publication US20170233449A1

Molecular target: type I interferon receptor (IFNAR1 and IFNAR2) on cells (human) (UniProt P17181)
Assay: cell-based or functional assay

Chain of type I interferon receptor (IFNAR1 and IFNAR2) on cells (human) (P17181 28-557, chain 1 of 2): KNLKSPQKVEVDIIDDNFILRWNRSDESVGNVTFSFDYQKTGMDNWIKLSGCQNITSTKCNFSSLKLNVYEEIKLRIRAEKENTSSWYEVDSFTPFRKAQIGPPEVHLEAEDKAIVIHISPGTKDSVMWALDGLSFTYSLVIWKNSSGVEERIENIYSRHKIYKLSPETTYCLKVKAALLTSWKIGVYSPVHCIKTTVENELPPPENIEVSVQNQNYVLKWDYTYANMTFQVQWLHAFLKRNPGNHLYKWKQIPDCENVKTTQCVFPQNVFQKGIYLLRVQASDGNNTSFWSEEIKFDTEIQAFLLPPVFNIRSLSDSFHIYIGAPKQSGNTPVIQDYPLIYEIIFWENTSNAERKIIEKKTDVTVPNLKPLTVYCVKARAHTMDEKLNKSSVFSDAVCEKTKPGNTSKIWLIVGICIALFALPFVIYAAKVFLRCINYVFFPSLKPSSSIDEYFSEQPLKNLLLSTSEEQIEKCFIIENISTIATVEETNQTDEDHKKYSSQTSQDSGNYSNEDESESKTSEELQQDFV
Chain of type I interferon receptor (IFNAR1 and IFNAR2) on cells (human) (P48551 27-515, chain 2 of 2, further chain): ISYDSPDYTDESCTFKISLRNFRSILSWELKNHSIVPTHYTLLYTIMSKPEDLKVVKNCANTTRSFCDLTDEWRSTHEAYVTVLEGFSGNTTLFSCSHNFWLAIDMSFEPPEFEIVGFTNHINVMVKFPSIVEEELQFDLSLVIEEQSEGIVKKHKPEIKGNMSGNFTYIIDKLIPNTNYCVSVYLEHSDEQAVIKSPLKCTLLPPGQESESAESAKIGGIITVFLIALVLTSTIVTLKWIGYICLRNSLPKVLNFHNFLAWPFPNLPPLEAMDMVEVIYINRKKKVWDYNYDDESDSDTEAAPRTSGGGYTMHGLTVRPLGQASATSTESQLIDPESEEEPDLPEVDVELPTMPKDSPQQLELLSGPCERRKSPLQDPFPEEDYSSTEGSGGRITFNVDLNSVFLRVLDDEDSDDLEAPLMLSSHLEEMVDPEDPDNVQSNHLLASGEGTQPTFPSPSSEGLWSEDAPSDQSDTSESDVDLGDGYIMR

- EC50 Off Target (pM) iLite: 0.799 pM
- EC50 On Target (PM) ARP-1: 10.5 pM
Substance: human interferon-β1 (IFNβ), free wild type (from UniProt P01574 22-187) (ligand)
